Values quoted from earlier work, collected in paper PMC4101496.

Target: Asp14 (UniProt position 14, FGAHADDVEIG)
Test: kinetics
Details: WT enzyme under turnover; pH profiles of Zn2+-BshB and Co2+-BshB reported as identical

N-acetylglucosamine-malate deacetylase (BshB) (Bacillus anthracis (per Table 1 accession; the review says BshB from both B. anthracis and B. cereus (BC1534) has been characterised and does not state which gave the pH profile))
pKa: 8.5
